Experimental findings from US20260295010 (published 2026) are described below.

T1: IL-12RB2-hFc (human, UniProt Q99665)
T1 chain: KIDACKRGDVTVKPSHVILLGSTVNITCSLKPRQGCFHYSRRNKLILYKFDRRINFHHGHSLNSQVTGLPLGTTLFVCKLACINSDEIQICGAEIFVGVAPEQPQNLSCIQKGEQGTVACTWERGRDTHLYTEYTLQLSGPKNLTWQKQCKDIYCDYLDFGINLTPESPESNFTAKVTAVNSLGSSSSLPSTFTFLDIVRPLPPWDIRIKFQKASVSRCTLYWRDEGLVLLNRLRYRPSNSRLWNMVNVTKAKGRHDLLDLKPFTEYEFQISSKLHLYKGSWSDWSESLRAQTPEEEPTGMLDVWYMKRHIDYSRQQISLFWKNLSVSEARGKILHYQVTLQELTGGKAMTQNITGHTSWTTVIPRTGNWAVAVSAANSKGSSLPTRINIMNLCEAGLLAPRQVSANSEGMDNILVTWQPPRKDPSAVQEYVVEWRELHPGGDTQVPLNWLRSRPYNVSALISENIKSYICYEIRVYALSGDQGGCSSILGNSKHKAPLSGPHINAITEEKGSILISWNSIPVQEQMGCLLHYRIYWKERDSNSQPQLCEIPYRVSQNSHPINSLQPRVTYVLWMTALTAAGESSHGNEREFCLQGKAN

B1: IL-12p70 K259Y (protein)
chain 1: MIWELKKDVYVVELDWYPDAPGEMVVLTCDTPEEDGITWTLDQSSEVLGSGKTLTIQVKEFGDAGQYTCHKGGEVLSHSLLLLHKKEDGIWSTDILKDQKEPKNKTFLRCEAKNYSGRFTCWWLTTISTDLTFSVKSSRGSSDPQGVTCGAATLSAERVRGDNKEYEYSVECQEDSACPAAEESLPIEVMVDAVHKLKYENYTSSFFIRDIIKPDPPKNLQLKPLKNSRQVEVSWEYPDTWSTPHSYFSLTFSVQVQGYSKREKKDRVFTDKTSATVICRKNASISVRAQDRYYSSSWSEWASVPCSGGGSHHHHHH
chain 2: MRNLPVATPDPGMFPSLHHSQNLLRAVSNMLQKARQTLEFYPCTSEEIDHEDITKDKTSTVEACLPLELTKNESCLNSRETSFITNGSSLASRKTSFMMALCLSSIYEDLKMYQVEFKTMNAKLLMDPKRQIFLDQNMLAVIDELMQALNFNSETVPQKSSLEEPDFYKTKIKLCILLHAFRIRAVTIDRVMSYLNAS
B2: IL-12p70 K105E (protein)
chain 1: B1 chain 1 with K105E, Y259K
chain 2: B1 chain 2
B3: IL-12p70 D94K (protein)
chain 1: B1 chain 1 with D94K, Y259K
chain 2: B1 chain 2
B4: IL-12p70 E87K,K196E,K198E (protein)
chain 1: B1 chain 1 with E87K, K196E, K198E, Y259K
chain 2: B1 chain 2
B5: IL-12p70 p40-HIS6_C253S / p35_C16S_C89S (protein)
chain 1: B1 chain 1 with Y259K
chain 2: B1 chain 2
B6: IL-12p70 K196E (protein)
chain 1: B1 chain 1 with K196E, Y259K
chain 2: B1 chain 2
B7: IL-12p70 W16A (protein)
chain 1: B1 chain 1 with W16A, Y259K
chain 2: B1 chain 2
B8: IL-12p70 L197A (protein)
chain 1: B1 chain 1 with L197A, Y259K
chain 2: B1 chain 2

Residue numbers refer to the chain shown, from its start. In names and notes the source's numbering stands. Several values for one entry are separate records, joined by “and”; a condition that tells them apart may be missing. Equal entries are not always repeated.

The target of one assay is T1, IL-12RB2-hFc. As to the kind of experiment: SPR, 25C. (In SPR one partner is held on a chip, and binding of the other changes the refractive index at the surface.)
Broadly, the Kd is the constant that tells how readily two partners part at equilibrium. Low values mean higher affinity, high ones lower affinity. B1 came in with a Kd of 1.1 nM.

B2: the Kd is 0.56 nM. This Kd lies about 2-fold lower than the previous one.

Regarding B3, the Kd was 1.2 nM.

B4 came in with a Kd of 0.61 nM.

On to B5, for which the Kd is 0.75 nM and 0.34 nM.

The molecule B6 showed a Kd of 0.42 nM.

The molecule B7 had a dissociation constant Kd of 0.62 nM.

Consider B8, for which the Kd is 0.55 nM.

The next assay concerns the target T2, IL-12RB1-hFc (human, UniProt P42701). The assay is described as follows: SPR, 25C.
The koff is the rate constant with which the complex falls apart. For the molecule B4, the koff is 0.0705 s⁻¹.

On to B7, for which the koff was 0.049 s⁻¹.

Another assay has as its target T1, IL-12RB2-hFc. As to the kind of experiment: SPR, 25C. This is another data set of the same source.
Turning to B1, the Kd came to 4 nM.

Molecule B2 yielded a Kd of 1.1 nM.

With B3, binding was put at a Kd of 1.9 nM. Compared with the last molecule, the Kd is about 1.7-fold higher.

With B5, the Kd was 2.5 nM and 2.4 nM.

In turn, B6 had a Kd of 2.7 nM.

B7 had a Kd of 16 nM.

For B8, the Kd was found to be 2.3 nM.

In the next assay the target is T2, IL-12RB1-hFc. As to the kind of experiment: SPR, 25C. The source holds these as a separate data set.
B1: the Kd is 0.08 nM.

In the case of B2, the Kd was 0.13 nM.

Turning to B3, the Kd came to 0.75 nM.

B5: the Kd worked out at 0.04 nM.

In the case of B6, the Kd is 0.15 nM.

B8 came in with a Kd of 0.05 nM.

The next assay has as its target T2, IL-12RB1-hFc. The assay is described as follows: SPR, 25C. This is another data set of the same source.
The molecule B1 registered a Kd of 0.87 nM.

Molecule B2 came in with a Kd of 0.5 nM.

Consider B3, for which the Kd was determined as 0.44 nM.

As to B5, the Kd is 0.3 nM and 0.11 nM.

Consider B6, for which the Kd was 0.7 nM.

B8: the Kd amounted to 0.31 nM.
